Laboratory results reported in patent publication US9688764B2, “Methods of treating breast cancer by administering anti-human prolactin receptor (PRLR) antibodies” (REGENERON PHARMACEUTICALS, INC., priority 2013, dated 2017).

Assays:
HEK293/mfPRLR = experiment: FACS cell surface binding; set-up: species or system macaca fascicularis
In short: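 HEK293 lines stably expressing HA-tagged human, cynomolgus or mouse PRLR, native-expressing T47D and parental HEK293 tested by flow cytometry. Cells (1×10^5) stained with primary antibody 30 min on ice, then PE anti-human secondary; MFI expressed as fold over isotype control.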

[1] = target: T1, PRLR-expressing cells (T47D) (Homo sapiens, UniProt P16471); experiment: Antibody binding and internalization by PRLR-expressing cells (imaging); format: cell-based; settings: [mAb] (0.67 nM); for % Internalization relative to Control I: alexa488 intensity in intracellular vesicles, 1 h at 37° C.; for % Total Binding relative to Control I: whole cell alexa488 intensity at 37° C.
T1 construct: a native PRLR expressing cell line (T47D); endogenous in cells; host or cells: T47D
T1 sequence (P16471 25-622): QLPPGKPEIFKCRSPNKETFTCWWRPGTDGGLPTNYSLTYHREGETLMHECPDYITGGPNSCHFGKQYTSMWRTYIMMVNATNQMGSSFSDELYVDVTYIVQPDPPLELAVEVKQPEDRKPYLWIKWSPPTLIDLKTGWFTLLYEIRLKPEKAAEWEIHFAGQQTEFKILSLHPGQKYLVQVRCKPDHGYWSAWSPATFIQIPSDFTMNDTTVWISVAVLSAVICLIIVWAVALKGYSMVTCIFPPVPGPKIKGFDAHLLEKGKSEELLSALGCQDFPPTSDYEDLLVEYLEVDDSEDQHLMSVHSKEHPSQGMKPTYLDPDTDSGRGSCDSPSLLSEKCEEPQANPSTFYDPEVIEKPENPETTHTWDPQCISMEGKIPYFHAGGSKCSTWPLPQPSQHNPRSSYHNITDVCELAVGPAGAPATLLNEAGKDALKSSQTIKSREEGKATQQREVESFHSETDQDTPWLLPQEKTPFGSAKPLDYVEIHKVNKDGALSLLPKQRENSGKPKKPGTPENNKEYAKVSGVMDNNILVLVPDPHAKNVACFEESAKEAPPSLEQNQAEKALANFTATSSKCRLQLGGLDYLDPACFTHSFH

[2] = test system: HEK293/hPRLR/STAT5-Luc cells (human PRLR); experiment: STAT5-Luc luciferase reporter assay, blocking of PRL-mediated receptor activation; format: cell-based; settings: for IC50: 5 nM constant PRL, 6 hr at 37° C.; for Percent Blocking at 100 nM Antibody: 5 nM PRL
In short: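 Engineered HEK293 line stably carrying human PRLR and a STAT5-dependent luciferase reporter; antibodies (100 nM to 24 pM) incubated 6 hr at 37° C with 5 nM constant PRL, luminescence read. IC50 from four-parameter fit of 8-point curves; percent blocking at highest antibody dose; agonism without ligand also tested.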

Sequence of HEK293/mfPRLR (as listed by the source): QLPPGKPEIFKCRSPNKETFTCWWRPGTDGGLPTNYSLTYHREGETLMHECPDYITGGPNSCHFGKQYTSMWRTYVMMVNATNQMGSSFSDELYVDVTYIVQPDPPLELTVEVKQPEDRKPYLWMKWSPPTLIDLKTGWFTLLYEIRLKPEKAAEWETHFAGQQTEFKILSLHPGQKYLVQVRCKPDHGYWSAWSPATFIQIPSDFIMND

B1: H1H6953N: human IgG1 Fc form of H1M6953N; anti-PRLR; HCVR/LCVR SEQ ID NOs 274/282 (antibody, V domains shown)
VH: EVQLLESGGGLVQPGGTLRLSCAASGFTFSAYAMSWVRQAPGKGLEWVSSINVRAGDTYYADSVKGRFTISRDNSKNTLFLLMNSLRAEDTAAYYCAKARYSSNWGFDFWGQGTLVTVSS
VL: DIVMTQSPDSLTVSLGARTTINCQSSQTILHSSNNHNYLAWYQQKPGLPPKLLIYWSSTRESGVPDRFSGSGSGTDFTLTISSLQAEDVAIYYCQQYSNTPYTFGQGTKLEIN
modifications: human IgG1 Fc
FACS Cell Binding (Fold Above Background) (HEK293/mfPRLR): 29 Fold Above Background | % Internalization relative to Control I [1]: 153.9% | % Total Binding relative to Control I [1]: 164.2% | IC50 [2]: 0.105 nM | Percent Blocking at 100 nM Antibody [2]: 100%

B2: H1H6804P: anti-PRLR antibody, human IgG1 Fc; HCVR/LCVR SEQ ID NOs 242/250 (antibody, V domains shown)
VH: QVTLKESGPVLVKPTQTLSLTCTVSGFSLSDAGMGVSWIRQPPGKALEWLAHIFSNDGKSYSTSLKSRLTISKDTSKRQVVLTMTNMDPVDTATYYCARIRTGTYSLYLDYWGQGTLVTVSS
VL: DIQMTQSPSSLSASVGDRVTITCRASQSINSYLNWYQQKPGKAPKLLLYFASSLQSGVPSRFSGSGSGTDFTLTISSLQPEDFASYYCQESYSTPWTFGQGTKVEIK
modifications: human IgG1 Fc
FACS Cell Binding (Fold Above Background) (HEK293/mfPRLR): 29 Fold Above Background | % Internalization relative to Control I [1]: 138.9% | % Total Binding relative to Control I [1]: 149.6% | IC50 [2]: 7.89 nM | Percent Blocking at 100 nM Antibody [2]: 100%
